Measurements from US20200113997A1 (published 2020).

Molecular target: CH848 Env trimer expressed on the cell surface of CHO cells (HIV-1 (clade C, individual CH848, …))
Assay: flow cytometry on CHO cells expressing CH848 Env

B1: DH270.IA4 (antibody, V domains shown)
VH: QVQLVQSGAEVKKPGASVKVSCKASGYTFTDYYIHWVRQAPGQGLEWMGWINPNTGRTNYAQKFQGRVTMTRDTSISTAYMELSRLRSDDTAVYYCARGGWIGLYYDSSGYPNFDYWGQGTLVTVSS
VL: QSALTQPASVSGSPGQSITISCTGTSYDVGSYNLVSWYQQHPGKAPKLMIYEVSKRPSGVSNRFSGSKSGNTASLTISGLQAEDEADYYCCSYAGSSTVIFGGGTKLTVL
notes: also called DH270_I4
B1: no binding (tested: 5 ug/mL).
